Substitutions are numbered along the chain they refer to.
T1: human TREM2 on cells (human, UniProt Q9NZC2 19-230)
T1 sequence: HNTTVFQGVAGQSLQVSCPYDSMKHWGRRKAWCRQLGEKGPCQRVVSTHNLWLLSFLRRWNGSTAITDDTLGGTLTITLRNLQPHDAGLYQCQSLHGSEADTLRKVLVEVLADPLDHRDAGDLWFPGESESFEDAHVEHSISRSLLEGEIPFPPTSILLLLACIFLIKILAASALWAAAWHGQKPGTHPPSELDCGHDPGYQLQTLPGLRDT

T2: human TREM2 (human, UniProt Q9NZC2 19-174, limits assumed)
T2 sequence: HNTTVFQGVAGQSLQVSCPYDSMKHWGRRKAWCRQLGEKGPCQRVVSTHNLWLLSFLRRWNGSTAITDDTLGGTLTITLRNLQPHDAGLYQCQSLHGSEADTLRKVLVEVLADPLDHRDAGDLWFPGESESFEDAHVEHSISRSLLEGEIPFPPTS

B1: 12G10 (antibody, human IgG2, V domains shown)
VH: EVQLLESGGGLVQPGGSLRLSCAASGFTFSSYAMSWVRQAPGKGLEWVSAIGGGGVSTYCADSVKGRFTISRDNSKNTLYLQMNSLRAEDTAVYYCAKFYIAVAGSHFDYWGQGTLVTVSS
VL: QAVPTQPSSLSASPGVLASLTCTLRSGINVGTYRIYWYQQKPGSPPQYLLRYKSDSDKQQGSGVPSRFSGSKDASANAGILLISGLQSEDEADYYCMIWYSSAVVFGGGTKLTVL
B2: V41 (Fab, V domains shown)
VH: EVQLVQSGAEVKKPGESLKISCKGSGYSFTSYWIAWVRQMPGKGLEWMGTIYPGDSDTRYSPSFQGQVTISADKSISTAYLQWSSLKASDTAMYFCARQRTFYYDSSDYFDYWGQGTLVTVSS
VL: DIQMTQSPSSVSASVGDRVTITCRASQGISSWLAWYQQKPGKAPKLLIYAASSLQNGVPSRFSGSGSGTDFTLTISSLQPEDFATYFCQQADSFPRTFGQGTKLEIK
B3: V86 (Fab, V domains shown)
VH: B2 VH with T30G, I34L, T50I, Q65E, Q99S
VL: B2 VL with L54R
B4: V72 (Fab, V domains shown)
VH: B2 VH with A35G, T50I, Q99G
VL: B2 VL with Q55V, F94Y
B5: V62 (Fab, V domains shown)
VH: B2 VH with T30G, T50I, S61A, D108G
VL: B2 VL with N56R, Q89G
B6: V52 (Fab, V domains shown)
VH: B2 VH with T30E, T50I, Q99G
VL: B2 VL with N56R, S93R
B7: V48 (Fab, V domains shown)
VH: B2 VH with T30G, T50I, T58V, Q99M
VL: B2 VL with N56T, F94L
B8: V60 (Fab, V domains shown)
VH: B2 VH with S28H, T50I, T58V, F110S
VL: B2 VL with N56R, Q89G
B9: V63 (Fab, V domains shown)
VH: B2 VH with T30R, T50I, Q99S
VL: B2 VL with N56R, S93R
B10: V85 (Fab, V domains shown)
VH: B2 VH with T30R, Q99S
VL: B2 VL with L54R
B11: V75 (Fab, V domains shown)
VH: B2 VH with T50I, Q99G
VL: B2 VL with N56A, F94Y
B12: V61 (Fab, V domains shown)
VH: B2 VH with T30S, T50I, S61N, Q99G
VL: B2 VL with Q55V, F94L
B13: V49 (Fab, V domains shown)
VH: B2 VH with T30N, Y60L, Q99S
VL: B2 VL with L54R, F94Y
B14: V89 (Fab, V domains shown)
VH: B2 VH with T50I
VL: B2 VL with F94H
B15: V51 (Fab, V domains shown)
VH: B2 VH with T50I, T58V, Q99G, Y112N
VL: B2 VL with L54R
B16: V87 (Fab, V domains shown)
VH: B2 VH with T30R, T50I, T58V, S63D, Q99S
VL: B2 VL with N56W
B17: V53 (Fab, V domains shown)
VH: B2 VH with T50I, S63H
VL: B2 VL
B18: V84 (Fab, V domains shown)
VH: B2 VH with S28G, T50I, F110S
VL: B2 VL with A50G
B19: V76 (Fab, V domains shown)
VH: B2 VH with T30G, T50I, S63E, F110S
VL: B2 VL with N56K, T69R
B20: V77 (Fab, V domains shown)
VH: B2 VH with T50I
VL: B2 VL with L54R
B21: V73 (Fab, V domains shown)
VH: B2 VH with T30G, T50I, S63G, Q99G
VL: B2 VL with L54R, F94Y
B22: V88 (Fab, V domains shown)
VH: B2 VH with T30G, T50I
VL: B2 VL with S53R, N56R, F94S
B23: V74 (Fab, V domains shown)
VH: B2 VH with T30A, T50I, T58V, Q99G
VL: B2 VL with N56L

How the values were obtained:
human TREM2 on cells = target: T1, human TREM2 on cells; experiment: cell-based or functional assay
human TREM2 [1] = target: T2, human TREM2; experiment: yeast-displayed Fab FACS, 2nd screen 2 nM
human TREM2 [2] = target: T2, human TREM2; experiment: yeast-displayed Fab FACS, 2nd screen 10 nM
human TREM2 [3] = target: T2, human TREM2; experiment: yeast-displayed Fab FACS, 1st screen 10 nM

| Binder | pSyk EC50 (human TREM2 on cells) [nM] | binding signal fold over 6E7 parental (human TREM2 [1]) [fold] | binding signal fold over 6E7 parental (human TREM2 [2]) [fold] | binding signal fold over 6E7 parental (human TREM2 [3]) [fold] |
| --- | --- | --- | --- | --- |
| B1 | 0.4 | – | – | – |
| B2 | – | 0.58 | 1.72 | 1.74 |
| B3 | – | 5.17 | 5.02 | 4.8 |
| B4 | – | 2.5 | 4.01 | 3.64 |
| B5 | – | 1.87 | 2.89 | 2.49 |
| B6 | – | 1.78 | 3.09 | 3 |
| B7 | – | 2.3 | 2.54 | 2.42 |
| B8 | – | 3.35 | 3.63 | 3.26 |
| B9 | – | 4.91 | 3.71 | 3.76 |
| B10 | – | 5.41 | 5.37 | 5.41 |
| B11 | – | 3.74 | 4.52 | 4.64 |
| B12 | – | 3.63 | 5.22 | 5.08 |
| B13 | – | 5.02 | 6.58 | 6.51 |
| B14 | – | 0.94 | 1.46 | 1.33 |
| B15 | – | 1.83 | 3.18 | 2.81 |
| B16 | – | 4.86 | 3.93 | 3.84 |
| B17 | – | 0.66 | 1.17 | 1.25 |
| B18 | – | 1.45 | 1.62 | 1.44 |
| B19 | – | 4.34 | 4.93 | 4.57 |
| B20 | – | 0.83 | 1.38 | 1.43 |
| B21 | – | 4.17 | 5.44 | 5.12 |
| B22 | – | 5.57 | 5.3 | 4.92 |
| B23 | – | 2.54 | 4.01 | 3.94 |

Reference: patent US20220204611A1 (Amgen, published 2022)
